Test results as given in publication PMC3693578 (Molecular cell, 2012).

Biological target: T1, TSC1 (hamartin), endogenous human (human (endogenous in HeLa), UniProt Q92574 1-1164)
T1 sequence (looked up): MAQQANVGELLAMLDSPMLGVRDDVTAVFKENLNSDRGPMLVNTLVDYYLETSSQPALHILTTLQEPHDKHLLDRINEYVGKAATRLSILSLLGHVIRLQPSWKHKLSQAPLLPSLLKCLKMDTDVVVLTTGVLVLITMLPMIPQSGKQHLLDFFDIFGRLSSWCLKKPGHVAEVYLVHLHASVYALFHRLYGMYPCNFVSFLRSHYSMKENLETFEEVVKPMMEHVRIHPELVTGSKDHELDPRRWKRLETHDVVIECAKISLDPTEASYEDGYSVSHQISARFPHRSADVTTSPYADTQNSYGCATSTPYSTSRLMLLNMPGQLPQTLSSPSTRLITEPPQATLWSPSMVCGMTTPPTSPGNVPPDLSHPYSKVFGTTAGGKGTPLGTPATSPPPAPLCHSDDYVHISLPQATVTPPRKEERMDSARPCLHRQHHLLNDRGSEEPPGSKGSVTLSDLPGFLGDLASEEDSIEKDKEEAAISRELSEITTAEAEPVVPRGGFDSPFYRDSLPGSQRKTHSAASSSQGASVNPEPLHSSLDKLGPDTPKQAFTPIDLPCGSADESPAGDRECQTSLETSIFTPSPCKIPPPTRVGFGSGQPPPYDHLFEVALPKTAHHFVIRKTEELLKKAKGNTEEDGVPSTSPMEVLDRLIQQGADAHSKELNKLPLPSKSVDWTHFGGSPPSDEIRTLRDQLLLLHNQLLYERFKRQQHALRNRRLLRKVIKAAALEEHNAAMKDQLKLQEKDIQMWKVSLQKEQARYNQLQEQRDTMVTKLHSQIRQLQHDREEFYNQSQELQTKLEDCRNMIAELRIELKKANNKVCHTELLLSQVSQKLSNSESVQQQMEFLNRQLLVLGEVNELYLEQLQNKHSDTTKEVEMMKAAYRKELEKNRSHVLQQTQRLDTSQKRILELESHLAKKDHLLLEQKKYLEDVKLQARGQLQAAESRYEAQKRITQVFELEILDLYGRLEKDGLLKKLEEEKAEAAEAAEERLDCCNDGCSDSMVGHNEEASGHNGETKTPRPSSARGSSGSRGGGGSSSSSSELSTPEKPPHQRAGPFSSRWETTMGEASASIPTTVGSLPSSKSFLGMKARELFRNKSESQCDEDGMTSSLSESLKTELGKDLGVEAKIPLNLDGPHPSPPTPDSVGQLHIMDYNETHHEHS
Experiment: affinity purification with mass spectrometry

stoichiometry N: ~1
B1: TSC2 (tuberin), endogenous human (natural protein)
chain: not shown
